The target of experiment [1] is T1, human G-CSFR expressed on cells (Homo sapiens, UniProt Q99062 25-836).
T1 sequence: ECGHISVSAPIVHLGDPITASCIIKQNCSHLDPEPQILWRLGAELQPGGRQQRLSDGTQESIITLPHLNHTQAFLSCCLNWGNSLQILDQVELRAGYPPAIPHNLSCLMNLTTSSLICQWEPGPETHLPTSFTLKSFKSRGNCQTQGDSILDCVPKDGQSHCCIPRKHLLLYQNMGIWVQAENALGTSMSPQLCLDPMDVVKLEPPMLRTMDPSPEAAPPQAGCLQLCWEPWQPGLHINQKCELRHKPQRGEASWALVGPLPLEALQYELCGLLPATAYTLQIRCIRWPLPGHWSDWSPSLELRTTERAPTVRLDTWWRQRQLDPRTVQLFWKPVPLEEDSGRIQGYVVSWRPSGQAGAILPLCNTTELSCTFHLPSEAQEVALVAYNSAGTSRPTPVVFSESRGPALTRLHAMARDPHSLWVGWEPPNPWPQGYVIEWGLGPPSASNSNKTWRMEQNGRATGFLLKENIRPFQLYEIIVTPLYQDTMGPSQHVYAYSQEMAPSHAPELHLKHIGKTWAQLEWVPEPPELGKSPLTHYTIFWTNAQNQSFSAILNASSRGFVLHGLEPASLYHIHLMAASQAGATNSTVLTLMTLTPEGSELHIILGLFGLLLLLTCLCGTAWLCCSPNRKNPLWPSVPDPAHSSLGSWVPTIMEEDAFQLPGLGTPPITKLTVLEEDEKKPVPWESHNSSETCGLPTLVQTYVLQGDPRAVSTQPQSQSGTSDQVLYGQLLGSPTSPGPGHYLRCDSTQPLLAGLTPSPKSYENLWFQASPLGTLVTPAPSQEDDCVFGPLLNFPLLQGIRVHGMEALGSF
The experiment can be described thus: cell-based or functional assay.

For experiment [2], the target named is T1, human G-CSFR expressed on cells. The experiment can be described thus: cell-based or functional assay. This is another data set of the same source.
Experiment [3] deals with T2, wild type hG-CSFR (soluble, corresponding extracellular domains of the wild type receptor) (Homo sapiens, UniProt Q99062 25-335).
T2 construct: also called wt hG-CSFR
T2 sequence: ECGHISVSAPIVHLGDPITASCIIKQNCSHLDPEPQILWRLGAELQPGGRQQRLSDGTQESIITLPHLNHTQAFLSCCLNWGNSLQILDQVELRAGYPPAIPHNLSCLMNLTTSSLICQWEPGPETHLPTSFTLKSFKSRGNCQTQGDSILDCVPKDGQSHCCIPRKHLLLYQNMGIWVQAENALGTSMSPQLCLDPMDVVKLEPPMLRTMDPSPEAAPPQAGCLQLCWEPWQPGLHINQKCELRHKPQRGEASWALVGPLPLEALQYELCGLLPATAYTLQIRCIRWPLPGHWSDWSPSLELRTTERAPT
Kind of experiment: SPR (Biacore), mAb captured by anti-Fc, soluble wild type receptor injected. On the technique in general: Surface plasmon resonance follows binding to a sensor surface in real time, without labels.

Experiment [4] has as its target T1, human G-CSFR expressed on cells. The experiment can be described thus: binding to BaF3 cells expressing hG-CSFR; method not described; hG-CSFR on the cell surface of BaF3 cells.
For experiment [5], the target named is T3, soluble hG-CSFR: amino acids 25-335 of Homo sapiens G-CSFR with mutations C78A, C163S and C228S and a … (Homo sapiens, UniProt Q99062 25-335).
T3 chain: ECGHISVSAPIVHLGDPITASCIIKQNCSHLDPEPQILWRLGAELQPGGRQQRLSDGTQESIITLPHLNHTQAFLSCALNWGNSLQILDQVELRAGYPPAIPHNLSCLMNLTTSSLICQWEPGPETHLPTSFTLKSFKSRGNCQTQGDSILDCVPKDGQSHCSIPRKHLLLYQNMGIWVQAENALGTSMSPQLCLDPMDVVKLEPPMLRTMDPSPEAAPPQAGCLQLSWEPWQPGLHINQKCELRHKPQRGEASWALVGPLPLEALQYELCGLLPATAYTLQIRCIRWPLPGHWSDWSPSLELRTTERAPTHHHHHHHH
The experiment can be described thus: SPR (Biacore 2000), receptor immobilised on CM5 chip, Fab in solution. On the procedure: (§1) Duplicate biosensor analysis of the Fab were performed using a Biacore 2000 (GE, Sweden) with a doubling dilution of Fab antibodies (100 nM to 0.39 nM in 0.1 mg/ml BSA) at a flow rate of 30 μl/min. Binding (100 μl) was monitored to respective flow cells containing control immobilised blank, immobilized cyno G-CSFR-Fc, immobilized human G-CSFR-Fc and immobilized human G-CSFR. Receptor proteins (20 μg per ml in 20 mM Sodium Acetate pH 4.5) were previously immobilized to a CM5 chip using a NHS/EDC coupling kit as per the manufacturer's instructions (Biacore GE, Sweden). Target immobilization values were set at 700, 700 and 500 resonance units for cyno G-CSFR-Fc, hG-CSFR-Fc and hG-CSFR, respectively. Chip immobilisation was quenched with 50 mM ethanolamine pH 8.0. Dissociation of surface binding was monitored for 1000 seconds prior to desorption of the remaining complex using 50 mM Phosphoric acid. Reference binding was then subtracted from the control channel and kinetics generated using biaevaluation software on the Biacore 2000.

The target in experiment [6] is T4, hG-CSFR-Fc: polypeptide of SEQ ID NO: 1 in which the C-terminal polyhistidine tag is replaced with an Fc … (Homo sapiens, UniProt Q99062 25-335).
T4 construct: the Fc is not specified; also called human G-CSFR-Fc; hG-CSFR-Fc fusion
T4 chain: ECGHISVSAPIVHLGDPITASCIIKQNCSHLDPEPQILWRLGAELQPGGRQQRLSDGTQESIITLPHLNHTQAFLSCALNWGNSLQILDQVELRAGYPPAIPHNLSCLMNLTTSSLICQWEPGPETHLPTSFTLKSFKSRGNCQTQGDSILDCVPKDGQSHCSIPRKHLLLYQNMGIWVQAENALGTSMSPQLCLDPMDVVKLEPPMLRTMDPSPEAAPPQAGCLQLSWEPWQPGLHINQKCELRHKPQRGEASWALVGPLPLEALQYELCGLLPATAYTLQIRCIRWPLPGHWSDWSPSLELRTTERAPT
The experiment is described as above. On the procedure:
as §1

For experiment [7], the target named is T5, cynoG-CSFR-Fc: corresponding segment of cynomolgus monkey G-CSFR with an Fc sequence attached to its … (Macaca fascicularis, UniProt Q99062 25-335 (human entry)).
T5 construct: the Fc is not specified; also called cynomolgus monkey G-CSFR-Fc
T5 chain: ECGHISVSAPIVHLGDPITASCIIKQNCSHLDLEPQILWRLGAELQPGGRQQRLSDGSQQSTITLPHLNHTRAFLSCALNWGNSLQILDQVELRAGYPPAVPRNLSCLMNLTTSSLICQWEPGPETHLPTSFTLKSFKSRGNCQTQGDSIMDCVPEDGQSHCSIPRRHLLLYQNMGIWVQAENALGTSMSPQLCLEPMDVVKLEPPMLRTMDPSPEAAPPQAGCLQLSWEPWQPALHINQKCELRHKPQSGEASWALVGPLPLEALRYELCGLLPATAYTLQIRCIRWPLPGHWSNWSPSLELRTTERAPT
The experiment is described as above. On the procedure: as §1

This is an account of results in patent publication US20160031998A1 (CSL, published 2016).

B1: C1.2G (germlined C1.2), human IgG4 (antibody, V domains shown)
VH: EVQLLESGGGLVQPGGSLRLSCAASGFTFSLYWMGWVRQAPGKGLEWVSSISSSGGVTPYADSVKGRFTISRDNSKNTLYLQMNSLRAEDTAVYYCAKLGELGWFDPWGQGTLVTVSS
VL: DIQMTQSPSSLSASVGDRVTITCRASQGISSYLNWYQQKPGKAPKLLIYYASNLQNGVPSRFSGSGSGTDFTLTISSLQPEDFATYYCQQSYSTPLTFGGGTKVEIK
notes: Human IgG4/kappa; also called C1.2 germline mAb; C1.2G (human IgG4)
In general, Kd refers to the constant that tells how readily two partners part at equilibrium. For B1, in experiment [1], the “IC50, inhibition of G-CSF-mediated proliferation of BaF3 cells expressing hG-CSFR (3H-thymidine incorporation)” value is 0.8 µg/mL. Besides, in experiment [2], the “IC50 (nM), inhibition of G-CSF-mediated proliferation of BaF3 cells” value was 0.32 nM. The results for the equilibrium dissociation constant (Kd) in experiment [3] and in experiment [4] were 1.4 nM and 0.257 nM, respectively.

B2: C1.2 Fab (Fab, V domains shown)
VH: EVQLLESGGGLVQPGGSLRLSCAASGFTFSLYWMGWVRQAPGKGLEWVSSISSSGGVTPYADSVKGRFTISRDNSKNTLYLQMNSLRAEDTAVYYCAMLGELGWFDPWGQGTLVTVSS
VL: DIQMTQSPSALSASVGDRVTITCRASQGISSYLNWYQQKPGKAPKLLIYYASNLQNGIPSRFSGSGSGTDFTLTISSLQPEDFATYHCQQSYSTPLTFGGGTNVEIR
notes: human Fab (papain digest of the antibody or E. coli expression); also called Fab C1.2
B2: the Kd was found to be 0.37 nM in experiment [5], 0.33 nM in experiment [6] and 0.39 nM in experiment [7].
